From patent US20200392228A1 (PANDION OPERATIONS, published 2020) come the findings set out here.

One experiment concerns the target T1, mouse MAdCAM protein (mouse, UniProt Q61826 22-365, limits assumed).
T1 construct: also called recombinant mouse MAdCAM-1; mMAdCAM-1
T1 sequence (looked up): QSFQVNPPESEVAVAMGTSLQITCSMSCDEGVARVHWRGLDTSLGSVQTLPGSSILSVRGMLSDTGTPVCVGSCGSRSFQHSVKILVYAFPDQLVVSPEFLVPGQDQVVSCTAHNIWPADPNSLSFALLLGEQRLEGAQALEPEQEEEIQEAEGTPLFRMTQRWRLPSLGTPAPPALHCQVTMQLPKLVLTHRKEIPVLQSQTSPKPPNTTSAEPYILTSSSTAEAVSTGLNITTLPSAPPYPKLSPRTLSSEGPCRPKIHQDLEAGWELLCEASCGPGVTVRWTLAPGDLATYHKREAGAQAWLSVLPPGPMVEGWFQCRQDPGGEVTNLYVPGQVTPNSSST
Nature of the experiment: Octet. (Biolayer interferometry detects binding as a change in optical thickness at a sensor tip.)

Experiment [1] addresses T2, mouse MAdCAM expressed on cells (mouse, UniProt Q61826 22-405).
T2 construct: whole, on cells
T2 sequence (looked up): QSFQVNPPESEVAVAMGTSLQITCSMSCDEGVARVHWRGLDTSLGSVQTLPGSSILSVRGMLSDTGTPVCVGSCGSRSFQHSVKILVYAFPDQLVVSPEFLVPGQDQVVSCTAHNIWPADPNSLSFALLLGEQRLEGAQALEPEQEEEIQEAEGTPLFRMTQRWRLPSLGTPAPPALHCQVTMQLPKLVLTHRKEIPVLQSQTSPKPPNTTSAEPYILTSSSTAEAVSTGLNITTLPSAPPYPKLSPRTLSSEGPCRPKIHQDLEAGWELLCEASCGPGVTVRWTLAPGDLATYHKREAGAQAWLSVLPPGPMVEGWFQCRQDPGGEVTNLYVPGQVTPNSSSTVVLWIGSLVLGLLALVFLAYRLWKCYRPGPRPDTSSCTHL
As to the kind of experiment: cell binding.

Experiment [2] has as its target T3, human MAdCAM protein (human, UniProt Q13477 19-317).
T3 construct: used for Octet, SPR, ELISA and plate capture; construct not described; also called recombinant human MAdCAM; soluble monomeric human MAdCAM
T3 sequence (looked up): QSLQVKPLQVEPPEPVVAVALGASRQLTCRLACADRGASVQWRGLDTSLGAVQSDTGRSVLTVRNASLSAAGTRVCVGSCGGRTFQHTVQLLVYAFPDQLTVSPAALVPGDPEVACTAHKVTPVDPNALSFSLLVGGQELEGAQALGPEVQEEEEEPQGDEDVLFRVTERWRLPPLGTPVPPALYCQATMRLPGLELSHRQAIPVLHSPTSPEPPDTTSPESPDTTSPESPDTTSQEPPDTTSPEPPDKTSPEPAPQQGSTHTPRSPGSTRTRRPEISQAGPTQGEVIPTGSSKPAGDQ
Nature of the experiment: Octet.

In experiment [3] the target is T4, human MAdCAM expressed on cells (human, UniProt Q13477 19-382).
T4 construct: whole, on cells; also called MADCAM1
T4 sequence (looked up): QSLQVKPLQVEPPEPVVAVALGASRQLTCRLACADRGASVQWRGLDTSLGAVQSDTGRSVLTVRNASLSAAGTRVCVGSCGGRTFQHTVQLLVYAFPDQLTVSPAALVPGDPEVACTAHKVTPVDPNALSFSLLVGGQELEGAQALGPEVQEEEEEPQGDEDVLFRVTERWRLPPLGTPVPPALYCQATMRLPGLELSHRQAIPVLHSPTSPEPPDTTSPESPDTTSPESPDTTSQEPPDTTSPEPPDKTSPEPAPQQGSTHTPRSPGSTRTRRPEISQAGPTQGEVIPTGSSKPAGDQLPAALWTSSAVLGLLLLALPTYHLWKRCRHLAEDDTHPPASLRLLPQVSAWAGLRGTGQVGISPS
Nature of the experiment: cell binding.

Experiment [4] concerns the target T3, human MAdCAM protein. As to the kind of experiment: Octet. The source holds these as a separate data set.
The target of experiment [5] is T4, human MAdCAM expressed on cells. Nature of the experiment: cell binding. This is another data set of the same source.
Experiment [6] has as its target T2, mouse MAdCAM expressed on cells. As to the kind of experiment: cell binding. The source holds these as a separate data set.

Like-named read-outs stand apart in the source and are kept apart here.

B1: MAdCAM antibody Clone ID 28 of Table 7 (IgG) (antibody, V domains shown)
VH: EVQLLESGGGLVQPGGSLRLSCAASGFTFSSYAMSWVRQAPGKGLEWVSYISSSSTYTNYADSVKGRFTISRDNSKNTLYLQMNSLRAEDTAVYYCARANSSSWYDWYFDLWGQGTLVTVSS
VL: not shown
notes: IgG format
In the case of B1, the binding result (with mouse MAdCAM protein; in experiment [1]) was “no binding” in each case.

B2: MAdCAM antibody Clone ID 29 of Table 7 (IgG) (antibody, V domains shown)
VH: EVQLLESGGGLVQPGGSLRLSCAASGFTFSSYQMSWVRQAPGKGLEWVSYISSSSTYTNYADSVKGRFTISRDNSKNTLYLQMNSLRAEDTAVYYCARANSSSWYDWYFDLWGQGTLVTVSS
VL: not shown
notes: IgG format
Consider B2, for which the binding result (in the experiment with mouse MAdCAM protein; in experiment [1]) was “no binding” throughout.

B3: MAdCAM antibody Clone ID 36 of Table 7 (IgG) (antibody, V domains shown)
VH: EVQLLESGGGLVQPGGSLRLSCAASGFTFDDYALHWVRQAPGKGLEWVSAISGDGRSTTYADSVKGRFTISRDNSKNTLYLQMNSLRAEDTAVYYCARDGTVNGATGWFDPWGQGTLVTVSS
VL: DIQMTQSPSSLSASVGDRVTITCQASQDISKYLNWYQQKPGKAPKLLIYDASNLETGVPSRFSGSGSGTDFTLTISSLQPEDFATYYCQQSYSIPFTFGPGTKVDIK
notes: IgG format
On to B3, for which the binding result (in the experiment with human MAdCAM protein [2]; in experiment [3]; in experiment [1]) was “binds” throughout.

B4: MAdCAM antibody Clone ID 65 of Table 6 (scFv) (scFv)
scFv: QVQLVQSGAEVKKPGASVKVSCKASGYTFTRHWIHWVRQAPGQGLEWMGWINVKTGGAGYAQKFQGRVTMTRDTSTSTVYMELSSLRSEDTAVYYCARESSGWYGTDVWGQGTTVTVSSGGGGSGGGGSGGGGSGGGGSDIQMTQSPSSLSASVGDRATITCRASQSISNYLAWYQQKPGKAPKLLIYAASSLQSGVPSRFSGSGSGTDFTLTISSLQPEDFATYYCQQSNSFPLTFGGGTKVEIK
Take B4: the binding result (with human MAdCAM protein [4]; in experiment [5]; in experiment [6]) was “binds” each time.

B5: MAdCAM antibody Clone ID 24 of Table 7 (IgG) (antibody, V domains shown)
VH: EVQLVESGGGLVKPGGSLRLSCAASGFTFSSYWMSWVRQAPGKGLEWVSRISSDGRITTYAAPVKGRFTISRDDSKNTLYLQMNSLKTEDTAVYYCARGTSYCTGGVCDIDYWGQGTLVTVSS
VL: DIQMTQSPSSLSASVGDRVTITCRASQSIGRNLNWYQQKPGKAPKLLIYSASNLQSGVPSRFSGSGSGTDFTLTISSLQPEDFATYYCQQSYSIPLTFGPGTKVDIK
notes: IgG format
With B5, the binding result with mouse MAdCAM protein is given as “no binding”; in experiment [3], “binds”; in experiment [1] it was “no binding”.

B6: MAdCAM antibody Clone ID 30 of Table 7 (IgG) (antibody, V domains shown)
VH: EVQLLESGGGLVQPGGSLRLSCAASGFTFSSYAMHWVRQAPGKGLEWVSGISGSGGSAYYADSVKGRFTISRDNSKNTLYLQMNSLRAEDTAVYYCATSQAPVDYYYYGMDVWGQGTTVTVSS
VL: DIQMTQSPSSLSASVGDRVTITCRASQSISSWLAWYQQKPGKAPKLLIYAASNLQRGVPSRFSGSGSGTDFTLTISSLQPEDFATYYCQQSYSIPITFGQGTKVEIK
notes: IgG format
B6: the binding result (with human MAdCAM protein [2]; in experiment [3]; in experiment [1]) was “binds” each time.

B7: MAdCAM antibody Clone ID 1 of Table 6 (scFv) (scFv)
scFv: EVQLLESGGGLVQPGGSLRLSCAASGFTFSSYGMHWVRQAPGKGLEWVAVISDDGSDKYYADSVKGRFTISRDNSKNTLYLQMNSLRAEDTAVYYCTTSKYYYYYGMDVWGQGTTVTVSSGGGGSGGGGSGGGGSGGGGSDIQMTQSPSSLSASVGDRVTITCQASQDISKSLNWYQQKPGKAPKLLIYAASSLQSGVPSRFSGSGSGTDFTLTISSLQPEDFATYYCQQGYSTPLTFGGGTKVEIK
Take B7: the binding result (with human MAdCAM protein [4]; in experiment [5]) was “binds” each time.

B8: MAdCAM antibody Clone ID 66 of Table 6 (scFv) (scFv)
scFv: EVQLLESGGGLVQPGGSLRLSCAASGFTFSSYWMHWVRQAPGKGLEWVAAISYDGKYKDYEDSVKGRFTISRDNSKNTLYLQMNSLRAEDTAVYYCARENKQWLASFDYWGQGTLVTVSSGGGGSGGGGSGGGGSGGGGSDIQMTQSPSSLSASVGDRVTITCQASQDISNFVNWYQQKPGKAPKLLIYAANLRSGVPSRFSGSGSGTDFTLTISSLQPEDFATYYCQQANSFPVTFGPGTKVDIK
B8: the binding result (in the experiment with human MAdCAM protein [4]; in experiment [5]; in experiment [6]) was “binds” in each case.

B9: MAdCAM antibody Clone ID 64 of Table 6 (scFv) (scFv)
scFv: EVQLLESGGGLVKPGGSLRLSCAASGFAFSSHWMHWVRQAPGKGLEWVAGTSGSGESRDYADFVKGRFTISRDDSKNTLYLQMNSLKTEDTAVYYCARETYYYYYMDVWGKGTTVTVSSGGGGSGGGGSGGGGSGGGGSDIQMTQSPSSLSASVGDRVTITCRASQGISNYLAWYQQKPGKAPKLLIYDAANLEGGVPSRFSGSGSGTDFTLTISSLQPEDFATYYCQQSDIFPPTFGQGTKVEIK
With B9, the binding result (with human MAdCAM protein [4]; in experiment [5]; in experiment [6]) was “binds” each time.

B10: MAdCAM antibody Clone ID 74 of Table 7 (IgG) (antibody, V domains shown)
VH: QVQLVQSGAEVKKPGASVKVSCKASGYTFTGYYMHWVRQAPGQGLEWMGIINPSGGNTKYAQKFQGRVTMTRDTSTSTVYMELSSLRSEDTAVYYCTTADYYYYMDVWGKGTTVTVSS
VL: DIQMTQSPSSLSASVGDRVTITCRASQGISNYLAWYQQKPGKAPKLLIYAASSLQSGVPSRFSGSGSGTDFTLTISSLQPEDFATYYCQQYYSNADFGQGTKVEIK
notes: IgG format
As to B10, the binding result (with mouse MAdCAM protein; in experiment [1]) was “no binding” in each case.

B11: MAdCAM antibody Clone ID 14 of Table 7 (IgG) (antibody, V domains shown)
VH: QVQLVQSGAEVKKPGSSVKVSCKASGYTFTNYYMHWVRQAPGQGLEWMGGIIPIVDGVKYAQKFQGRVTITADESTSTAYMELSSLRSEDTAVYYCAKGQFTGNYYYGMDYWGQGTLVTVSS
VL: DIQMTQSPSSLSASVGDRVTITCQANQDISNYLNWYQQKPGKAPKLLIYRASKLEAGVPSRFSGSGSGTDFTLTISSLQPEDFATYYCQQSSEIPYSFGQGTKVEIK
notes: IgG format
B11: the binding result (in the experiment with mouse MAdCAM protein; in experiment [1]) was “no binding” in each case.

B12: MAdCAM antibody Clone ID 65 of Table 7 (IgG) (antibody, V domains shown)
VH: QVQLVQSGAEVKKPGASVKVSCKASGYTFTSYDINWVRQAPGQGLEWMGWMNPNSGNTGYAQKFQGRVTMTRDTSTSTVYMELSSLRSEDTAVYYCAKDSDYSNLLWDYWGQGTLVTVSS
VL: DIQMTQSPSSLSASVGDRVTITCRASQDITNDLGWYQQKPGKAPKLLIYQASSLESGVPSRFSGSGSGTDFTLTISSLQPEDFATYYCQQSYTIPLTFGQGTKVEIK
notes: IgG format
As to B12, the binding result (in the experiment with mouse MAdCAM protein; in experiment [1]) was “no binding” in each case.

B13: MAdCAM antibody Clone ID 60 of Table 6 (scFv) (scFv)
scFv: EVQLLESGGGLVQPGGSLRLSCAASGFTFDDYTMHWVRQAPGKGLEWVSDISGSGGSTYYADSVKGRFTISRDNSKNTLYLQMNSLRAEDTAVYYCAKDVVVAGTPLHFDYWGQGTLVTVSSGGGGSGGGGSGGGGSGGGGSDIQMTQSPSSLSASVGDRVTITCQASQDISNYLNWYQQKPGKAPKLLIYAASYLQSGVPSRFSGSGSGTDFTLTISSLQPEDFATYYCQQAHNYPITFGQGTRLEIK
Consider B13, for which the binding result (with human MAdCAM protein [4]; in experiment [5]; in experiment [6]) was “binds” in each case.

B14: MAdCAM antibody Clone ID 61 of Table 6 (scFv) (scFv)
scFv: EVQLLESGGGLVQPGGSLRLSCAASEFTFSNAWMSWVRQAPGKGLEWVASISSTSAYIDYADSVKGRFTISRDNSKNTLYLQMNSLRAEDTAVYYCAREVVGATTFDYWGQGTLVTVSSGGGGSGGGGSGGGGSGGGGSDIQMTQSPSSLSASVGDRVTITCRASQSISTWLAWYQQKPGKAPKLLIYAASSLQSGVPSRFSGSGSGTDFTLTISSLQPEDFATYYCQQANAFPPTFGQGTRLEIK
Take B14: the binding result (in the experiment with human MAdCAM protein [4]; in experiment [5]; in experiment [6]) was “binds” throughout.
